Assay results as given in article PMC6881253 (2019).

Molecular target: N-terminally His6-tagged human PCNA (proliferating cell nuclear antigen) (human, UniProt P12004 1-261)
Experiment: ITC

N-terminally His6-tagged human PCNA (proliferating cell nuclear antigen), sequence (P12004 whole entry): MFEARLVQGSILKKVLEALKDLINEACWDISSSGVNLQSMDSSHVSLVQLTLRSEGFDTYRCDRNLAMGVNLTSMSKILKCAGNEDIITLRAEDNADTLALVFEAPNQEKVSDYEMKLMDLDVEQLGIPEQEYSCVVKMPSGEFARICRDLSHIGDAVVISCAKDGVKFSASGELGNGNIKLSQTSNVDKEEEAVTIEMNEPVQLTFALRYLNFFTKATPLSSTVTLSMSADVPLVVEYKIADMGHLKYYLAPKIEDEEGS

Going from Ac-RKRRQTSMTDFYHSESSL-NH2 [S2, mutant variant of p21^140–157 (Ac-RKRRQTSMTDFYHSESSL-NH2)] to Ac-SESSQTSMTDFYHSESSL-NH2 [D1.2, mutant variant of p21^140–157 (Ac-SESSQTSMTDFYHSESSL-NH2)], the Kd rises from 0.3 µM to 40 µM (130-fold). The first binds more tightly here.

For Ac-SESSQTSMTDFYHSKRRL-NH2 [S1, mutant variant of p21^140–157 (Ac-SESSQTSMTDFYHSKRRL-NH2)], the Kd was 8.3 µM.
